{
  "source": "patent US7638334B2",
  "about": "“Method for generating engineered cells by homologously recombining segments having increased degeneracy” (Morphotek, Inc., priority 2002, dated 2009)",
  "molecules": {"B1": {"name": "PMS134: previously published dominant negative human PMS2 mismatch repair mutant (SEQ ID NO:11/12) (protein, listed as Homo sapiens)", "chain": "RGGSGVASMERAESSSTEPAKAIKPIDRKSVHQICSGQVVLSLSTAVKELVENSLDAGATNIDLKLKDYGVDLIEVSDNGCGVEEENFEGLTLKHHTSKIQEFADLTQVETFGFRGEALSSLCALSDVTISTCHASAKVGT"}},
  "system": "endogenous MMR activity",
  "experiment": "pCAR-OF β-galactosidase reporter assay for MMR deficiency (in situ X-gal staining)",
  "format": "cell-based, human",
  "settings": "PMS134 expressed from pEF vector in HEK293 cells",
  "description": "A method used to detect MMR deficiency in eukaryotic cells is to employ a reporter gene that has a polynucleotide repeat inserted within the coding region that disrupts its reading frame due to a frame shift. In the case where MMR is defective, the reporter gene will acquire random mutations (i.e. insertions and/or deletions) within the polynucleotide repeat yielding clones that contain a functional reporter gene. An example of the ability to alter desired genes via defective MMR comes from experiments using HEK293 cells (described above), where a mammalian expression construct containing a defective β-galactosidase gene (referred to as pCAR-OF) was transfected into 293PMS134 or 293vec cells as described above. The pCAR-OF vector consists of a β-galactosidase gene containing a 29-basepair poly-CA tract inserted at the 5′ end of its coding region, which causes the wild-type reading frame to shift out-of-frame. […] Another reporter vector called pCAR-IF contains a β-galactosidase in which a 27-bp poly-CA repeat was cloned into the same site as the pCAR-OF gene, but it is biologically active because the removal of a single repeat restores the open reading frame and produces a functional chimeric β-galactosidase polypeptide (not shown). […] Cells were scored positive if the colonies turned blue in the presence of X-gal substrate and scored negative if colonies remained white. […]",
  "data": [
    {"molecule": "B1", "values": [
      {"measurement": "dominant negative effect on MMR", "value": "robust dominant negative effect"}
    ]}
  ]
}
